Consider 1 protein from article PMC5095702 (Biochemistry, 2016).

The data set deals with the molecule itself. The data set can be described thus: SEC.

B1: KdnB from Shewanella oneidensis (enzyme, S. oneidensis, UniProt Q8EEB0 1-356, looked up)
chain: MSFKNFKVVEKMIFGRGSFVQLDDVLAAQRKADDDFVVFLVDDVHQGKPLEARIPVKAQDLLIWVNVDEEPSTIQIDALTEQVQAFNGKLPVSVVGLGGGSTMDVAKAVSLMLTNPGGSAMYQGWDLIKKPAVHHIGIPTISGTGAEASRTAVLCGPVRKLGLNSDYTVFDQIIMDSELIDGVETDQWFYTGMDCYIHCVESLEGTFLNEFSKAYAEKAMDLCRQVYLEDHPEKDDKLMMASFMGGMSIAYSQVGACHAVSYGLSYILGYHHGIGNCIAFDVLEEFYPEGVAEFRLMMKKHNITLPKNICKDLPDETIAKMVAVTKSMGPLWANVYGPTWEEKVTDEMLTALFRRI
By stoichiometry N is commonly meant a count of units in the complex or per binding partner. For the protein B1, the “stoichiometry N” value came to 2.
